From paper PMC10539301, “Structure of the human ATAD2 AAA+ histone chaperone reveals mechanism of regulation and inter-subunit communication” (Communications Biology, 2023) come the findings set out here.

Series [1] concerns the molecule itself. The series can be described thus: SEC + native gel or EMSA + other: negative stain electron microscopy; purified ATAD2 (aa 403-1390) variants; wild type in the absence and presence of ATP; Supplementary Fig. 1. In general terms: Mobility shift assays separate free from complexed probe on a gel.
The target in series [2] is T1, Histone H3/H4 complex (X. laevis, wild type, refolded) (X. laevis, UniProt P84233 1-136; P62799 1-103).
T1 construct: It was pooled as the H3/H4 tetramer in 2 M NaCl and diluted to 150 mM NaCl before mixing; also called wild type H3/H4
The series can be described thus: cross-linking; DSS 1 mM, 30 min, 37 °C, in 25 mM HEPES pH 7.5, 150 mM NaCl, 5% glycerol, 1 mM DTT; sucrose gradient fraction of hexameric ATAD2; cross-links found by mass spectrometry (XL-MS). The note with it: both partners purified.

The target of series [3] is Histone H3 (X. laevis, recombinant) (X. laevis, UniProt P84233 1-136). Described as above. Conditions: both partners purified.
Series [4] addresses Histone H4 (X. laevis, recombinant) (X. laevis, UniProt P62799 1-103). Described as above. The note with it: both partners purified.
Series [5] concerns the molecule itself. Description: cryo-EM structure; ATAD2 Walker B mutant and refolded H3/H4 or H3/H4K5Q mixed 1:1.5 in 150 mM NaCl, cross-linked with 1 mM DSS, purified on a 10-30% sucrose gradient; vitrified at 1.2 mg/mL with 1 mM Mg-ATP; classes I-III at 3.8, 4.3, 4.3 Å.

B1: N-terminally truncated ATAD2 (aa 403-1390), wild type (domain or fragment, human, UniProt Q6PL18 403-1390, looked up)
chain: DRMKIGASLADVDPMQLDSSVRFDSVGGLSNHIAALKEMVVFPLLYPEVFEKFKIQPPRGCLFYGPPGTGKTLVARALANECSQGDKRVAFFMRKGADCLSKWVGESERQLRLLFDQAYQMRPSIIFFDEIDGLAPVRSSRQDQIHSSIVSTLLALMDGLDSRGEIVVIGATNRLDSIDPALRRPGRFDREFLFSLPDKEARKEILKIHTRDWNPKPLDTFLEELAENCVGYCGADIKSICAEAALCALRRRYPQIYTTSEKLQLDLSSINISAKDFEVAMQKMIPASQRAVTSPGQALSTVVKPLLQNTVDKILEALQRVFPHAEFRTNKTLDSDISCPLLESDLAYSDDDVPSVYENGLSQKSSHKAKDNFNFLHLNRNACYQPMSFRPRILIVGEPGFGQGSHLAPAVIHALEKFTVYTLDIPVLFGVSTTSPEETCAQVIREAKRTAPSIVYVPHIHVWWEIVGPTLKATFTTLLQNIPSFAPVLLLATSDKPHSALPEEVQELFIRDYGEIFNVQLPDKEERTKFFEDLILKQAAKPPISKKKAVLQALEVLPVAPPPEPRSLTAEEVKRLEEQEEDTFRELRIFLRNVTHRLAIDKRFRVFTKPVDPDEVPDYVTVIKQPMDLSSVISKIDLHKYLTVKDYLRDIDLICSNALEYNPDRDPGDRLIRHRACALRDTAYAIIKEELDEDFEQLCEEIQESRKKRGCSSSKYAPSYYHVMPKQNSTLVGDKRSDPEQNEKLKTPSTPVACSTPAQLKRKIRKKSNWYLGTIKKRRKISQAKDDSQNAIDHKIESDTEETQDTSVDHNETGNTGESSVEENEKQQNASESKLELRNNSNTCNIENELEDSRKTTACTELRDKIACNGDASSSQIIHISDENEGKEMCVLRMTRARRSQVEQQQLITVEKALAILSQPTPSLVVDHERLKNLLKTVVKKSQNYNIFQLENLYAVISQCIYRHRKDHDKTSLIQKMEQEVENFSCSR
notes: ATAD2 (ATPase family AAA domain-containing 2), human, aa 403-1390, from a codon-optimized synthetic full-length gene (Genscript); The vector has a Tev protease site after the 3xFlag tag; No cleavage step is described in the purification; also called wild type ATAD2
Take B1: the binding result in series [1] is reported as “binds”.

B2: ATAD2 LD/Walker B triple mutant (D415A/E532Q/R540A), aa 403-1390 (domain or fragment, human, UniProt Q6PL18 403-1390, looked up)
chain: DRMKIGASLADVAPMQLDSSVRFDSVGGLSNHIAALKEMVVFPLLYPEVFEKFKIQPPRGCLFYGPPGTGKTLVARALANECSQGDKRVAFFMRKGADCLSKWVGESERQLRLLFDQAYQMRPSIIFFDQIDGLAPVASSRQDQIHSSIVSTLLALMDGLDSRGEIVVIGATNRLDSIDPALRRPGRFDREFLFSLPDKEARKEILKIHTRDWNPKPLDTFLEELAENCVGYCGADIKSICAEAALCALRRRYPQIYTTSEKLQLDLSSINISAKDFEVAMQKMIPASQRAVTSPGQALSTVVKPLLQNTVDKILEALQRVFPHAEFRTNKTLDSDISCPLLESDLAYSDDDVPSVYENGLSQKSSHKAKDNFNFLHLNRNACYQPMSFRPRILIVGEPGFGQGSHLAPAVIHALEKFTVYTLDIPVLFGVSTTSPEETCAQVIREAKRTAPSIVYVPHIHVWWEIVGPTLKATFTTLLQNIPSFAPVLLLATSDKPHSALPEEVQELFIRDYGEIFNVQLPDKEERTKFFEDLILKQAAKPPISKKKAVLQALEVLPVAPPPEPRSLTAEEVKRLEEQEEDTFRELRIFLRNVTHRLAIDKRFRVFTKPVDPDEVPDYVTVIKQPMDLSSVISKIDLHKYLTVKDYLRDIDLICSNALEYNPDRDPGDRLIRHRACALRDTAYAIIKEELDEDFEQLCEEIQESRKKRGCSSSKYAPSYYHVMPKQNSTLVGDKRSDPEQNEKLKTPSTPVACSTPAQLKRKIRKKSNWYLGTIKKRRKISQAKDDSQNAIDHKIESDTEETQDTSVDHNETGNTGESSVEENEKQQNASESKLELRNNSNTCNIENELEDSRKTTACTELRDKIACNGDASSSQIIHISDENEGKEMCVLRMTRARRSQVEQQQLITVEKALAILSQPTPSLVVDHERLKNLLKTVVKKSQNYNIFQLENLYAVISQCIYRHRKDHDKTSLIQKMEQEVENFSCSR
notes: ATAD2, human, aa 403-1390, with D415A, E532Q and R540A; source: SF9 cells (baculovirus), purified
As for B2, the binding result in series [1] is on record as “binds”.

B3: ATAD2 Walker B mutant (E532Q), aa 403-1390 (domain or fragment, human, UniProt Q6PL18 403-1390, looked up)
chain: DRMKIGASLADVDPMQLDSSVRFDSVGGLSNHIAALKEMVVFPLLYPEVFEKFKIQPPRGCLFYGPPGTGKTLVARALANECSQGDKRVAFFMRKGADCLSKWVGESERQLRLLFDQAYQMRPSIIFFDQIDGLAPVRSSRQDQIHSSIVSTLLALMDGLDSRGEIVVIGATNRLDSIDPALRRPGRFDREFLFSLPDKEARKEILKIHTRDWNPKPLDTFLEELAENCVGYCGADIKSICAEAALCALRRRYPQIYTTSEKLQLDLSSINISAKDFEVAMQKMIPASQRAVTSPGQALSTVVKPLLQNTVDKILEALQRVFPHAEFRTNKTLDSDISCPLLESDLAYSDDDVPSVYENGLSQKSSHKAKDNFNFLHLNRNACYQPMSFRPRILIVGEPGFGQGSHLAPAVIHALEKFTVYTLDIPVLFGVSTTSPEETCAQVIREAKRTAPSIVYVPHIHVWWEIVGPTLKATFTTLLQNIPSFAPVLLLATSDKPHSALPEEVQELFIRDYGEIFNVQLPDKEERTKFFEDLILKQAAKPPISKKKAVLQALEVLPVAPPPEPRSLTAEEVKRLEEQEEDTFRELRIFLRNVTHRLAIDKRFRVFTKPVDPDEVPDYVTVIKQPMDLSSVISKIDLHKYLTVKDYLRDIDLICSNALEYNPDRDPGDRLIRHRACALRDTAYAIIKEELDEDFEQLCEEIQESRKKRGCSSSKYAPSYYHVMPKQNSTLVGDKRSDPEQNEKLKTPSTPVACSTPAQLKRKIRKKSNWYLGTIKKRRKISQAKDDSQNAIDHKIESDTEETQDTSVDHNETGNTGESSVEENEKQQNASESKLELRNNSNTCNIENELEDSRKTTACTELRDKIACNGDASSSQIIHISDENEGKEMCVLRMTRARRSQVEQQQLITVEKALAILSQPTPSLVVDHERLKNLLKTVVKKSQNYNIFQLENLYAVISQCIYRHRKDHDKTSLIQKMEQEVENFSCSR
notes: ATAD2 (ATPase family AAA domain-containing 2), human, aa 403-1390, Walker B mutation E532Q; A Tev site follows the tag, and no cleavage step is described; also called ATAD2 (in the structure sections); not shown: 3xFlag, N-terminal, kept
Usually stoichiometry N stands for the number of molecules, sites or subunits per partner or assembly. On to B3, for which the binding result in series [2], in series [3] and in series [4] was “binds” each time. Moreover, in series [5], the “stoichiometry N” value amounted to 6.
